According to patent US11542537B2, “High-purity steviol glycosides” (PureCircle Sdn Bhd, priority 2012, dated 2023):
Where a chain is given by its changes, count along the chain named.

Legend:
Type in all cases: biochemical
[1] = Catalytic reaction with in-vitro produced UGT91D2, Rebaudioside A to Rebaudioside D; settings: in-vitro produced UGT91D2, 0.1 mM Rebaudioside A, after 120 h
Procedure: The total volume of the reaction was 0.5 mL with the following composition: 50 mM sodium phosphate buffer pH 7.2, 3 mM MgCl2, 3.8 mM UDP-glucose, 0.1 mM Rebaudioside A and 180 μL of in-vitro produced UGT91D2. The reactions were run at 30° C. on an orbitary shaker at 135 rpm. For each sample, 450 μL of reaction mixture was quenched with 45 μL of 2N H2SO4 and 405 μL of 60% MeOH. After centrifugation, the supernatant was analyzed by HPLC (CAD). HPLC indicated a 4.7% conversion of rebaudioside A to rebaudioside D after 120 h.

[2] = UGT76G1 lysate activity test, Stevioside to Rebaudioside A (HPLC); settings: in-vivo produced UGT76G1 thawed lysate, 0.5 mM Stevioside, 30° C.
Procedure: The total volume of the reaction was 5.0 mL with the following composition: 50 mM sodium phosphate buffer pH 7.2, 3 mM MgCl2, 2.5 mM UDP-glucose, 0.5 mM Stevioside and 500 μL of UGT76G1 thawed lysate. The reactions were run at 30° C. on an orbitary shaker at 135 rpm. For each sample, 460 μL of the reaction mixture was quenched with 40 μL of 2N H2SO4 and 420 μL of methanol/water (6/4). The samples were immediately centrifuged and kept at 10° C. before analysis by HPLC (CAD).
(§1) Activity tests were performed on a 5 mL scale with 500 μL of thawed lysate for the transformation of Stevioside to Rebaudioside A and Rebaudioside D to Rebaudioside M using 0.5 mM of substrate, 2.5 mM of UDP-Glucose and 3 mM MgCl2 in 50 mM Sodium Phosphate buffer at pH 7.2. Samples were taken and analyzed by HPLC.

[3] = UGT76G1 activity test, Rebaudioside D to Rebaudioside M (HPLC); settings: in-vitro produced UGT76G1, 0.5 mM Rebaudioside D, after 120 h
Procedure: The total volume of the reaction was 2 mL with the following composition: 50 mM sodium phosphate buffer pH 7.2, 3 mM MgCl2, 3.8 mM UDP-glucose, 0.5 mM Rebaudioside D and 180 μL of in-vitro produced UGT76G1. The reactions were run at 30° C. on an orbitary shaker at 135 rpm. For each sample, 400 μL of reaction mixture was quenched with 40 μL of 2N H2SO4 and 360 μL of 60% MeOH. After centrifugation, the supernatant was analyzed by HPLC (CAD).
as §1
5 mL of the lysate of Example 12 was used to transform Rebaudioside D to Rebaudioside M on a 50 mL scale. The reaction medium consisted of 50 mM Sodium Phosphate buffer pH 7.2, 3 mM of MgCl2, 2.5 mM of UDP-Glucose and 0.5 mM of Rebaudioside D. After allowing the reaction to be shaken at 30° C. for 90 h. 50 mL of ethanol was added and the resulting mixture was allowed to stir at −20° C. for 1 h. After centrifugation at 5000 g for 10 min. the supernatant was purified via ultrafiltration (Vivaflow MWCO 30000). […]

[4] = Conversion of Rebaudioside E to Rebaudioside D with UGT76G1 lysate; settings: 500 μL UGT76G1 thawed lysate, 0.5 mM Rebaudioside E, 30° C., pH 7.5
Procedure: The total volume of the reaction was 5.0 mL with the following composition: 100 mM potassium phosphate buffer pH 7.5, 3 mM MgCl2, 2.5 mM UDP-glucose, 0.5 mM Rebaudioside E and 500 μL of UGT76G1 thawed lysate (UGT76G1 gene was cloned in pET30a+ vector and expressed in E. coli BL21 (DE3)). The reactions were run at 30° C. on an orbitary shaker at 135 rpm. For sampling 300 μL of the reaction mixture was quenched with 30 μL of 2N H2SO4 and 270 μL of methanol/water (6/4). The samples were immediately centrifuged and kept at 10° C. before analysis by HPLC (CAD detection).

[5] = Directed evolution of UGT76G1 round 1, variant lysates, Rebaudioside D to Rebaudioside M conversion and initial rate
Procedure: Lysis was performed by addition of Bugbuster® Master mix (Novagen®) to the thawed cells and the lysate was recovered by centrifugation. Activity tests were performed with 100 μL of fresh lysate that was added to a solution of Rebaudioside D (final concentration 0.5 mM), MgCl2 (final concentration 3 mM) and UDP-Glucose (final concentration 2.5 mM) in 50 mM phosphate buffer pH 7.2.
The reaction was allowed to run at 30° C. and samples were taken after 2, 4, 7 and 24 h. to determine conversion and initial rate by HPLC (CAD detection) using the analytical method that was described above for the transformation of Rebaudioside D to Rebaudioside M. The results are depicted in the following table.

B1: UGT91D2: UDP-glucosyltransferase, Genbank ACE87855.1, in-vitro produced (protein, UniProt B3VI56 1-473, looked up)
UDP-glycosyltransferase 91D2: MATSDSIVDDRKQLHVATFPWLAFGHILPYLQLSKLIAEKGHKVSFLSTTRNIQRLSSHISPLINVVQLTLPRVQELPEDAEATTDVHPEDIPYLKKASDGLQPEVTRFLEQHSPDWIIYDYTHYWLPSIAASLGISRAHFSVTTPWAIAYMGPSADAMINGSDGRTTVEDLTTPPKWFPFPTKVCWRKHDLARLVPYKAPGISDGYRMGLVLKGSDCLLSKCYHEFGTQWLPLLETLHQVPVVPVGLLPPEVPGDEKDETWVSIKKWLDGKQKGSVVYVALGSEVLVSQTEVVELALGLELSGLPFVWAYRKPKGPAKSDSVELPDGFVERTRDRGLVWTSWAPQLRILSHESVCGFLTHCGSGSIVEGLMFGHPLIMLPIFGDQPLNARLLEDKQVGIEIPRNEEDGCLTKESVARSLRSVVVEKEGEIYKANARELSKIYNDTKVEKEYVSQFVDYLEKNTRAVAIDHES
modifications: in vitro produced
notes: UDP-glucosyltransferase, Genbank ACE87855.1, in-vitro produced
conversion of rebaudioside A to rebaudioside D (HPLC) [1]: 4.7%

B2: UGT76G1: UDP-glucosyltransferase of Stevia rebaudiana, Genbank AAR06912.1, produced in E. coli or in vitro (protein, UniProt Q6VAB4 1-458, looked up)
UDP-glycosyltransferase 76G1: MENKTETTVRRRRRIILFPVPFQGHINPILQLANVLYSKGFSITIFHTNFNKPKTSNYPHFTFRFILDNDPQDERISNLPTHGPLAGMRIPIINEHGADELRRELELLMLASEEDEEVSCLITDALWYFAQSVADSLNLRRLVLMTSSLFNFHAHVSLPQFDELGYLDPDDKTRLEEQASGFPMLKVKDIKSAYSNWQILKEILGKMIKQTKASSGVIWNSFKELEESELETVIREIPAPSFLIPLPKHLTASSSSLLDHDRTVFQWLDQQPPSSVLYVSFGSTSEVDEKDFLEIARGLVDSKQSFLWVVRPGFVKGSTWVEPLPDGFLGERGRIVKWVPQQEVLAHGAIGAFWTHSGWNSTLESVCEGVPMIFSDFGLDQPLNARYMSDVLKVGVYLENGWERGEIANAIRRVMVDEEGEYIRQNARVLKQKADVSLMKGGSSYESLESLVSYISSL
conversion of stevioside to rebaudioside A (HPLC) [2]: almost complete conversion
conversion of rebaudioside D to rebaudioside M (HPLC) [3]: 80%
conversion of Rebaudioside E to Rebaudioside D (reaction profile) [4]: complete conversion

B3: UGT76G1var94: UGT76G1 variant containing mutations Q266E_P272A_R334K_G348P_L379G (protein, UniProt Q6VAB4 1-458, looked up, variant Q266E P272A R334K G348P L379G)
UDP-glycosyltransferase 76G1: B2 UDP-glycosyltransferase 76G1 with Q266E, P272A, R334K, G348P, L379G
activity ranking in first round of directed evolution, Rebaudioside D to Rebaudioside M [5]: most active clone
